Read-outs that look alike come from different tables or passages of the source.

Experiment [1] addresses Hemagglutinin (HA).
In experiment [2] the target is Hemagglutinin (HA). Kind of experiment: Hemagglutinin (HA) binding ELISA potency; antibody in Formulation #3, t=0. (In general: An ELISA detects its analyte on a solid surface through an enzyme-linked reagent.)

B1: Ab 044 (antibody, V domains shown)
VH: QVQLLETGGGLVKPGQSLKLSCAASGFTFTSYAMHWVRQPPGKGLEWVAVVSYDGNYKYYADSVQGRFTISRDNSKNTLYLQMNSLRAEDTAVYYCAKDSRLRSLLYFEWLSQGYFNPWGQGTTLTVSS
VL: DIQMTQSPSSLSASVGDRVTITCRSSQSITFDYKNYLAWYQQKPGKAPKLLIYWGSYLESGVPSRFSGSGSGTDFTLTISSLQPEDFATYYCQQHYRTPPSFGQGTKVEIK
In the experiment with Hemagglutinin (HA) [1], B1 showed a % Activity of 97% and an Average % Activity of 110%. In addition, the % Activity in the experiment with Hemagglutinin (HA) [2] is 123%.

These data come from patent US20200181243A1.
